Legend:
sNgR310 = molecular target: T1, sNgR310 (Rattus norvegicus, UniProt Q99M75, A303T/C287S/C43R/E284G/T53A); experiment: Aβ42 effect on Biotin-Aβ40 binding to immobilized sNgR310; conditions: dose-dependent, streptavidin HRP
T1 sequence (Q99M75 27-310 C43R/T53A/E284G/C287S/A303T): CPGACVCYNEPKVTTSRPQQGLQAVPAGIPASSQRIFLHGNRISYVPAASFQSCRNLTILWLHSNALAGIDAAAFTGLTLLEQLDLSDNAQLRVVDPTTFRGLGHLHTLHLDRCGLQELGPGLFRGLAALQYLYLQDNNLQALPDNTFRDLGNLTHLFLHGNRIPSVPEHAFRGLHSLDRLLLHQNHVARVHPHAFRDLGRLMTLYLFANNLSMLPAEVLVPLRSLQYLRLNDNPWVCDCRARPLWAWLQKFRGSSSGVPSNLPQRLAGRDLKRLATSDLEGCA
From the text: We examined whether the interaction between NgR and Aβ peptide has a role in aggregate formation. sNgR310 was immobilized on microtiter plates and Biotin-Aβ40 was applied along with Aβ42 peptide.

human NgR1 [1] = molecular target: T2, human NgR1 (Homo sapiens, UniProt Q9BZR6); experiment: Aβ42 effect on Biotin-Aβ40 binding to SKNMC cells expressing human NGR1; conditions: SKNMC cells expressing human NGR1, dose-dependent
T2 construct: expressed in transfected cells; host or cells: SKNMC cells
T2 sequence (Q9BZR6 27-447): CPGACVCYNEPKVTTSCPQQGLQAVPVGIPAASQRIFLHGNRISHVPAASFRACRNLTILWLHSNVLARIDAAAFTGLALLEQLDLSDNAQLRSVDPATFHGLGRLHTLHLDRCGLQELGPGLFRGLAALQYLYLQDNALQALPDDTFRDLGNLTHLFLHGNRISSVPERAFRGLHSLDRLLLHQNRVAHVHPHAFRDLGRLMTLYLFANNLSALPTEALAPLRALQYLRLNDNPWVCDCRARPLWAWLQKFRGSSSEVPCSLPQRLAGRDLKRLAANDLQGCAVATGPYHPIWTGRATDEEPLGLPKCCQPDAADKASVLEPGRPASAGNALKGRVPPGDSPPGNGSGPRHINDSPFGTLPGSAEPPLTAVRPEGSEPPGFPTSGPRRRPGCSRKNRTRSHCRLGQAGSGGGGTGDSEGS

sNgR310-Fc = molecular target: T3, sNgR310-Fc (Rattus norvegicus, UniProt Q99M75, A303T/C287S/C43R/E284G/T53A); experiment: Competition of free Aβ with NgR ligands on sNgR310-Fc coated wells; format: binding; conditions: competition assay
T3 construct: Fc portion of IgG (rat)
T3 sequence (Q99M75 27-310 C43R/T53A/E284G/C287S/A303T): T1 sequence (Q99M75 27-310 C43R/T53A/E284G/C287S/A303T)
Procedure: We analyzed whether Aβ (1-28) binding competed for NgR binding with other known ligands for NgR by allowing 250 nM soluble AP-Aβ(1-28) or AP-Nogo (1-33) to bind to wells coated with purified sNgR310-Fc in the presence of various concentrations of competing free Aβ. […] We observed that the Aβ peptides bind to both sNgR310-Fc and sNgR344-Fc. […] However, Aβ(1-28) displaced Aβ-AP binding but not AP-Nogo-66 (1-33) or AP-OMgp binding in competition assays. The Aβ peptide may begin to displace AP-MAG very slightly at high concentrations in our experiments. Thus, the Aβ binding site on NgR appears largely distinct from that for the myelin ligands NogoA, OMgp and MAG. Consistent with this, the presence of Aβ had little effect on myelin or Nogo-66 inhibition of neurite outgrowth.

NgR = molecular target: T4, NgR (Homo sapiens, UniProt Q9BZR6); experiment: AP-Aβ(1-28) fusion protein binding to NgR-expressing COS cells; conditions: not to vector-transfected COS cells
T4 construct: expressed in transfected cells; host or cells: COS cells
T4 sequence (Q9BZR6 27-473): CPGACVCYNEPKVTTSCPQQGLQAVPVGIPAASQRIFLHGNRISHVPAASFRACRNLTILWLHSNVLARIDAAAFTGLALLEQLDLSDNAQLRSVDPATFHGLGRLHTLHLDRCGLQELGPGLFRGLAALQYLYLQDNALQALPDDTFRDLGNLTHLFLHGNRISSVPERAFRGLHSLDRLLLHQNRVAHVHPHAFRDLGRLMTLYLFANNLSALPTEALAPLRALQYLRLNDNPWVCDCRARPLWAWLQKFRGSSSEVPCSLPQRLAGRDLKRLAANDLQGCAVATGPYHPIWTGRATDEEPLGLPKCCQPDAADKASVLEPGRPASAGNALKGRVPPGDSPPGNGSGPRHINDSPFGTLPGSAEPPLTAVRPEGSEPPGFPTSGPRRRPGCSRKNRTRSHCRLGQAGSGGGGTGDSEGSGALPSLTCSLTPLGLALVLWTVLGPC
From the text: We then investigated whether the Aβ region of APP is involved in its interaction with NgR—including whether the fibrillogenic Aβ42-3 peptide binds NgR. We created two fusion protein constructs containing alkaline phosphatase (AP) and the hydrophilic region of Aβ (amino acids 1-28) by fusing the coding sequence in frame with the signal sequence-6×His-placental alkaline phosphatase (AP) sequence of the vector pAP-6 (Nakamura et al., Neuron 2: 1093-1100, 1988). The AP-Aβ and Aβ-AP proteins both bound to NgR-expressing COS cells but not to vector-transfected COS cells. This binding was saturable with an apparent Kd of 60 nM. The interaction also was detected using purified Biotin-Aβ(1-40) in an ELISA-type assay with immobilized NgR.

NgR2 = molecular target: T5, NgR2 (Homo sapiens, UniProt Q86UN3); experiment: Aβ-AP binding specificity, NgR2
T5 sequence (Q86UN3 47-390): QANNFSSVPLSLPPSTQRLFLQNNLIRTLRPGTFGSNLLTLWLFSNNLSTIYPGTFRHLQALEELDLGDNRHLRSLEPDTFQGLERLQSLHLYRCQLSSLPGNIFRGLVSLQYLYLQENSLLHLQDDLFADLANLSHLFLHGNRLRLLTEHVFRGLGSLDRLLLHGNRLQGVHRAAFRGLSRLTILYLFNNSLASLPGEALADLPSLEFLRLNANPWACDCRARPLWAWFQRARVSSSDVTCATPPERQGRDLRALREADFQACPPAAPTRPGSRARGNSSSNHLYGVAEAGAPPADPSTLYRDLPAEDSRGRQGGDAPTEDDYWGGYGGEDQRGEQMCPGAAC
From the text: (§1) The specificity and selectivity of the Aβ(1-28) interaction with NgR was probed in several ways. The interaction was specific for NgR1 because neither NgR2 or NgR3—which share sequence similarity with NgR—bound Aβ-AP. Further, we observed species specificity: human NgR binds human AB to a greater extent than mouse NgR binds human AB or human NgR binds mouse AB or mouse NgR binds mouse Aβ.

NgR3 = molecular target: T6, NgR3 (Homo sapiens, UniProt Q86UN2); experiment: Aβ-AP binding specificity, NgR3
T6 sequence (Q86UN2 25-420): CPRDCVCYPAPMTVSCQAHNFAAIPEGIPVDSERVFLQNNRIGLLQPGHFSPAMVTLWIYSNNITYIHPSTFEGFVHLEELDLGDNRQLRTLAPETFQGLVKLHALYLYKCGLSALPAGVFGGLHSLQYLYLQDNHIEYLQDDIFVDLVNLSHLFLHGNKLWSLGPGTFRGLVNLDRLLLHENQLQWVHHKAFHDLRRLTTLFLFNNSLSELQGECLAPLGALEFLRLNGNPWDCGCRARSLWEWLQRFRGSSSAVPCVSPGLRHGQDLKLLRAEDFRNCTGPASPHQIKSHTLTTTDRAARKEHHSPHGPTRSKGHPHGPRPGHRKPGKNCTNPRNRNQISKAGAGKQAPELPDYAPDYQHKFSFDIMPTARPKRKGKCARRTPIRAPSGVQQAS
From the text: as §1

human NgR1 [2] = molecular target: T2, human NgR1; experiment: Fluo-Aβ42 binding to SKNMC cells expressing human NgR-1; conditions: 2 h at 4° C.

## Aβ42 peptide: fibrillogenic Aβ42 peptide
sNgR310
  effect on binding of Biotin-Aβ40 peptide to immobilized sNgR310: enhanced
Human NgR1 [1]
  effect on binding of Biotin-Aβ40 peptide to cells: enhanced

## Aβ(1-28): free Aβ peptide, amino acids 1-28, used as competitor
sNgR310-Fc
  displacement of AP-Nogo-66 (1-33) binding: not
  displacement of AP-OMgp binding: not
  displacement of Aβ-AP binding: displaced

## Aβ-AP: fusion protein of the hydrophilic region of Aβ (amino acids 1-28) and alkaline phosphatase (AP)
NgR
  binding to NgR-expressing COS cells: bound
NgR2
  binding to NgR2: neither
NgR3
  binding to NgR3: neither

## Fluo-Aβ42: labelled fibrillogenic Aβ42 peptide
Human NgR1 [2]
  binding to SKNMC cells expressing human NgR-1: binds
